The nanobody polyreactivity screen of Harvey et al. (2022)

Assay: yeast display, Sf9 membrane polyspecificity reagent, FACS + sequencing; frameworks hold sequencing errors
Method in brief: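 Sorting gates, low and high (top ~1%), were placed on anti-HA fluorescence to track expression and on streptavidin fluorescence to track reagent binding. A clone's polyreactivity label is taken from the gate it came out of. The reagent was 10% biotinylated, detergent-solubilized Sf9 membrane, applied for 1 hour at 4 °C to galactose-induced yeast display cells.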

Row | Sequence | polyreactivity (PSR sort gate)
1 | QVQLVEAGGGLVQAGGSLRLSCAASGGTFTAYAMGWYRQAPGKERELVAAISASGDSTYYADSVKGRFTISRDNAKNTVYLQMNSLKPEDTAVYYCNADWYRTGRRGSDYWGQGTQVTVSS | low polyreactivity
2 | QVQLVDSGGGLVQAGGSLRLSCAASGRPSVLMLMGWYRQAPGKERELVAAIDDSTDTTYYADSVKGRFTISRDNAKNTVYLQMNSLKPEDTAVYYCAAEEGYVKFSGSWSYGYDYWGQGTQVTVSS | high polyreactivity
3 | QVQLVESGGGLVQAGGSLRLSCAASGSTFVYYAMGWYRQAPGKERELVASITGGGRTNYADSVKGRFTISRENAKNNVYLQMNSLKPEDTAVYYCAKDHASYYYWPSVLPYDHWGQGSQVTVSS | low polyreactivity
4 | QVQLVESGGRLVQAGGSLRLSCAASGYIFFHYSRGWYRQAPGTERELVAANTSGGSTNYADSVKGRFTMSRDNAKNTDYLQMNSLKPEDTAVYYCAARGWINSKRLYALWGFDYWGQGTQVTVSS | low polyreactivity
5 | QVQLVESVGGLVQAGGSLRLSCGSSGSIFPYNAMGWYRQAPGKERELVATISSGGSTNYADSVKGRFTISRDNAKNTFYLQMNSLKPEDTAFYYCAADVIVFYYAPNYCGDIEYGYWGQGTQVTVSS | low polyreactivity
6 | QVQLVESGGGLVQAGGSLRLSCAASGRTFVANRMGWYRQAPGKERELVAAINDGDDTYYADSVKGRFTISRDNAKNTVYLQMNSLKPEDTAVYYCAADIIYGYEVYTYTSDYWGQGTQVTVSS | low polyreactivity
7 | QVQLVESGGGLVQAGGSLRLSYAASGSTFRVYAMGWYRQAPGKERELVAAISRSGGRTYYADSVKGRFTISRDNAKNTVYLQMNSLKPEDTAVYYCAADYKYTAVSDDYWGQGTQVTVSS | high polyreactivity
8 | QVQLVESGGGLVQAGGSLRLSCAASGIIIWTNVMGWYRQAPGKEREFVAAISRSGGSTYYADSVKGRFTISRDNAKNTVYLQMNSLKPEDTAVYYCAARLSYSVQKFDYWGQGTQVTVSS | high polyreactivity
9 | QVQVVESGGGLVNAAGSLRLSCAPSVSTSKWYTMGWDRQAPGKERELVAAITGSGGSTFYADSVKGRFTISRDNAKNTVYLQMHSLKQEDTAVYYCAADVYGGGVSFRFRYDSWGQGTQVTVSS | low polyreactivity
10 | QVQLEESGGGLVQAGGSLRLSCAASGFTFFSYYAMGWYIQAPGKERELVATITSGASTNYADSVKGRFTISRDNAKNTVYLQMNSLKPEDTAVYYCAAAYFYWRVDKYYYWGQGTQVTVSS | low polyreactivity
11 | QVQLVESGGGLVQAGGSLPLSCAASGRTFRRYAMGWYRQAPGKETELVAAISWGAGSTRYADSVKGRFTISRDNAKNTVYLQLNSLKPEDTAVYYCAAENTRAYGMYYWGQGTQVTVSS | high polyreactivity
12 | QVKLVESGGGLVQAGGSLRLICAASGNTFGPYDMGWYRQAPGKERQLVAGITSGGSTYYADSVKGSFTITRDNAKNTVYLQMNSLKPEDTAVYYCAADYYLWVYWYDYWGQGTQVTVSS | high polyreactivity
13 | QVQLVESGGGLVQAGGSLRLSCASSGRNFCIYGMAWYRQAPGKERELVAAISYDSGSTYYADSVTGRFTISRDNAKNTVYLQMNSLNPEDTAVYYCAAEWGLVIYSTYGYDYWGQGTQVTVSS | low polyreactivity
14 | QVQLVESGGGLVQAGGSLRLSCADSGITFKYNAMGWYRQAPGKERELVAGITWTGGTTYYADSVKGRFTISRDNAKNTVYLQMNSLNPEDTAVYYCATRNYAVVPSVRREGYYWGQGTQVTVSS | low polyreactivity
15 | QVQLVESGGGLVQAGGSLRLSCAASGSTFSEYAMGWYRQAPGKERELVASITWSDDSTYYADSVKGRFTISRDNAKITVYLQMNSLKPEDSAVYYCAVRTGRRWWKFDYWGQGTQVTVSS | low polyreactivity
16 | QVQLVESGGGLVQAGGSLRVSCAASGFIFLYYAMGWYRQAPGKERELVADISRGADTKYADSVKGRFTISRDNAKNTVYLQMNSLKPEDTAVYYCATDITTFWFPYPGVELGYWGQGTQVTVSS | low polyreactivity
17 | QVQLVESGGGLVQAGGSLRLSCSASGSIFGFYAMGWYRQAPGKERELVAAIDSGDSTNYADSVKGRFTISRDHAKNTVYLQMNSQKPEDSAVYYCNAEAWWYFWFDYWGQGTQVTVSS | low polyreactivity
18 | QVQLVESGGGLVQAGGSLRLSCAASGSIFRGNAMGWYRQAPGKERELVASISYSGGSTYYADSVKGRFTISRDNAKNTVYLQMNSLKPEDTAVYYCAADESVAYPYSGYQYYRHIYDYWGQGTQVTVSS | low polyreactivity
19 | QVQLVESGGGLVQAGGSLRLSCAASGSIFVHYAMGWSRQAPGKERELVAAITTSGGSTYYADSVKGRFTISRDNAKNTVYLQMNSLKPEDTAVYYCNARAVRYPFTGNYWAQGTQVTVSS | high polyreactivity
20 | QVQLVESGGGLVQAGGSLRLSCAASGSTLVVNGMGWYRQAPGKERELVASISSDGSTNYADSVKGRFTISRDNAKNTVYLQMNSLKPEDTAVYYCASDEGTGQASLSSNLYDYWGQGTQVTVSS | low polyreactivity
21 | QVQLVESGGGLVQAGGSLRLSCAASGSILDTNAMGWYRQAPGKERELVARIDIDGSTNYADSVKGRFTISRDNAKNTVYLQMNSLKPEDTAVYYCNKDHSSYGASGYDYWGQGTQVTVSS | low polyreactivity
22 | QVQLVESGGGLVQAGGTLRLSCAASGFTFNYYAMGWYRQAPGKERELFAAISSRGTGTYYADSVKGRFTISRDNAKNTVYFQMNSLKPEDTAVYYCAADWFTWSWQETRYGYWGQGTQVTVSS | high polyreactivity

Row | Sequence | polyreactivity (PSR sort gate)
23 | QVQLVESGGGLVQAGGSLRLSCAASGSIFDGYAMGWYRQAPGKEREFVAAITKRTGRTYYADSVKGRFTISRDNAKNTVYLQMNSLKPEDTAVYSCAARKKSLTTLRYGYWGQGTQVTVSS | high polyreactivity
24 | QVQLVESGGGLVQAGGSLRLSCAASGRTFYRNAMGWYRQAPGKEREFVAVISVSGGSTYYADSVKGRFTISRDNAKNTVYLQMNSLKPEDTAVSYCAADDYYLAGDYWGQGTQVTVSS | low polyreactivity
25 | QVQLVESGGGLVQAGGSLRLICAASGFIFVDNAMGWYRQAPGKERELVAAITSGASTYYADSVKGRFTISRDNAKITVYLQMNSLKPEDTAVYYCAADYLYYYTWYNYWGQGTQVTVSS | low polyreactivity
26 | QVQLVDSGGGLVQAGGSLRLSCAASGSNITRKAMGWYRQAPGKERELVAAIRKIGGRTYYADSVKGRFTISRDNAKNTVYLQMNSLKPEDTAVYYCAAGGSYYRDDYWGQGTQVTVSS | low polyreactivity
27 | QVQLVESGGGLVQAGGSLRLSCAASGITFRTYAMGWYRQAPGKERELVAAISGSSTSTYYADSVKGRFTISRDNAKNTVYLLMNSLKPEDTAVYYCAAGYRVSVYRYYYWGQGTQVTVSS | high polyreactivity
28 | QVQLVESGGGLVQAGGSLRLSCAASGITFDHYAMGWYRQAPGKEREFVAAIDDIGGDTYYADSVKGRFTISRDNAKNTVYLQMNSLKPEETAVYYCATDYPWIFGHFLMDYWGQGTQVTVSS | low polyreactivity
29 | QVQLVESGGGLVQAGGSLRLSCAASGSIFYVYAMGWYRQAPGKERELVAAITSSGTTNYADSVKGRLTISRDNAKNTVYLQMNSLKPEDTAVYYCAADPDSGQVPFDYWGQGTQVTVSS | low polyreactivity
30 | QDQLVESGGRLVQAGGSLRLSCAASGRIFSSYALGWYRQAPGKERELVAAIRSSGDRTYYADSVKGRFTISRDNAKITVYLQMNILKPEETAVYFCASRTYLYFGRYDYWGQGTQVTVSS | high polyreactivity
31 | QVQLVESGGGLVQAGGSLRLSCAASGNIFVFYVMGWYRQAPGNEREFVASFSSTGNTYYADSVKGRFTISRDNAKNTVYLQLNSLKPEDTAVYYCAADSHQNVSGWLRWPRMDYWGQGTQVTVSS | low polyreactivity
32 | QVQLVESGGGLVQAGGSLRLSCAASGSIFYRYAMGWYRQAPGKERELVAAISSGGSTYYADSVKGRFTISRDNAKNTVYLQMNSLKPEDTAVYYCAAKHYYYSPYVRYDPPPGYYWGQGTQVTVSS | high polyreactivity
33 | QVQLVESGGGLVQAGGSLRLSCAASGSTFEANAMGWYRQAPGKERELVAVITRTGGSTYYADSVKGRFTISRDNAKNTVYLQMNSLKPVDTAVYYCAADGVVPGRFFWPAHEYDYWGQGTQVTVSS | low polyreactivity
34 | QVQLVESGGGLVQAGGSLRLSCAASGNIFGEYAMGWYRQAPGKERELVATISSGGDTYYADSVKGRFTISRDNAKNTVYLQMNSLKPEDTAVYYCAVVDTLYESKYDYWGQGTQVTVSS | low polyreactivity
35 | QVQLVDSGGGLVQAGGSLRLTCAASGNTFYYYAMGWYRQAPGKERELVAAINRGGNTYYADSVKGRFTISRDNAKNTVYLQMNSLKPEDTAVYYCAKRKSNPGNRQEYYYWGQGTQVTVSS | low polyreactivity
36 | QVQLVESGGGLVQAGGSLRLSCAASASIFLVYAMGWYRQAPGKERELVAAISRSGRTYADSVKGRFTISRDNAKNTVYLQMNSLKPEDTAVYYCAAGTKRRFEGDYWGQGTQVTVSS | high polyreactivity
37 | QVQLVESGGGLVQAGGSLRLSCAASGRIIGFNAMGWYRQAPGKERELVASIRTTGGSTRYADSVKGRFTISRDNAKNTVYLQMNSLIPEDTAVYYCAARWGKTLWQYNYWGQGTQVTVSS | high polyreactivity
38 | QVQLVESGGGLVQAGGSLRLSCAASGRIFAQYAMGWYRQAPGKERELVADISSGVRTYADSVKGRFTISRDNAKNTVYLQMNSLKPEDTAVYYCNAYYIIFTRNDYWGQGTQVTVSS | low polyreactivity
39 | QVQLVESGSGLVQAGGILRLSCAASGFIFDAYAMGWYRQAPGKERELVAGISIGGRTNYADSVTGRFTISRDNALNTVYLQMTSLKPEDTAVYYCAARNYRYYYGSYYRGPITNYEYWGQGNQVTVSS | low polyreactivity
40 | QVQLVESGGGLVQAGGSLRLSCAASGSIFQYYVMGWYRQAPGKERELVAAISQSGGRTYYADSVKGRFTISRDNAKNTVYLQMNSLKPVDTAVFYCAADSRNAEYDYWGQGTQVTVSS | high polyreactivity
41 | QVELVESGGGLVQAGGSLRLSCAASGSTFSINAMGWYRQAPGKERELVADITWRGVRTYYADSVKGRFTISRDNAKNTVYLQMNSLKPEDTAVYYCAADVVVDGHPGFDYWGQGTQVTVSS | high polyreactivity
42 | QVQLVESGGGLVQAGGSLRLSCAASGLILGVYTMGWYRQAPGKEREFVASINFGGGSTYYADSVKGRFTISRDNAKNTVYLQMNSLKPEDTAVYYCNARSLGGGTRLYSYDYWGQGTQVTVSS | low polyreactivity
43 | QVQLVESGGGSVQAGGSLRLSCAASGFNFVYYAMGWYRQAPGKERELVAAITWSGGSTYADSVKGRFTISRDNAKNTVYLQMNSLKPEDTAVYYCAAEYDISSGYGFDFDYWGQGTQVTVSS | low polyreactivity
